From US20260042849A1, “PROTEASE-CLEAVABLE MOIETIES AND METHODS OF USE THEREOF” (CytomX Therapeutics, Inc., priority 2022, published 2026)

Experiments:
MMP14 [1] = target: T1, MMP14 (Homo sapiens, UniProt P50281); test: Internally quenched peptide probe cleavage assay (Example 8); assay type: biochemical; conditions: 20 μM peptide probe, 20 nM protease, 37° C.
From the text: (§1) The study provided herein evaluated the cleavability kinetics (i.e., pM/s and kcat/KM (M^−1 s^−1) of CMs with matriptase (MT-SP1) and matrix metalloprotease (MMP) 2 (MMP2), MMP9, and MMP14. The CMs listed in Table 10 below were presented in an internally quenched peptide probe format, rather than included in an activatable antibody format. In the internally quenched probes, the CM sequence was positioned between a 7-methoxycoumarin-4-acetyl (MCA) fluorophore and a 2,4-dinitrophenyl (DNP) quencher such that cleavage of the CM sequence produced a fluorescence signal. The probes were of the following designs: (MCA)-Gly-Ser-X1-X2-Pro-X3-Gly-Leu-X4-X5-Gly-Ser-Lys (DNP)-D-Arg (SEQ ID NO: 178) where X1 is Arg or is absent, X2 is Ser or is absent, X3 is Met or Trp, X4 is Lys, Arg, or is absent, and X5 is Ser or is absent; (MCA)-Ser-X1-Pro-X2-Gly-Leu-X3-X4-Gly-Ser-Lys (DNP)-D-Arg (SEQ ID NO: 179) where X1 is Ala, X2 is Met, X3 is Lys, and X4 is His; and (MCA)-Gly-Ser-Pro-X1-Gly-Leu-X2-Gly-Gly-Ser-Lys (DNP)-D-Arg (SEQ ID NO: 180) where X1 is Met and X2 is Lys, as indicated in Table 10. The cleavage rates (pM/s) were measured using 20 μM internally quenched peptide probe and 20 nM MT-SP1, MMP2, MMP9, or MMP14. Cleavability kinetics (i.e., pM/s and kcat/KM (M^−1 s^−1)) were measured at 37° C. in 96- or 384-well plate format in the following buffers: 50 mM TRIS-HCl (pH 7.4), 150 mM NaCl, 0.05% Tween 20 for MT-SP1, 50 mM Tris-HCl (pH 7.5), 10 mM CaCl2, 150 mM NaCl, 0.05% (w/v) Brij-35 for MMP2 and MMP9, and 50 mM HEPES (pH 6.8), 10 mM CaCl2), 0.5 mM MgCl2, 0.05% (w/v) Brij-35 for MMP14. Cleavability kinetics were determined on an Infinite 200 PRO (Tecan) multimode plate reader using a fluorescence excitation wavelength of 320 nm and an emission wavelength of 405 nm.

MMP2 = target: T2, MMP2 (Homo sapiens, UniProt P08253); test: as above; assay type: biochemical; conditions: 20 μM peptide probe, 20 nM protease, 37° C.
T2 sequence (P08253 110-660): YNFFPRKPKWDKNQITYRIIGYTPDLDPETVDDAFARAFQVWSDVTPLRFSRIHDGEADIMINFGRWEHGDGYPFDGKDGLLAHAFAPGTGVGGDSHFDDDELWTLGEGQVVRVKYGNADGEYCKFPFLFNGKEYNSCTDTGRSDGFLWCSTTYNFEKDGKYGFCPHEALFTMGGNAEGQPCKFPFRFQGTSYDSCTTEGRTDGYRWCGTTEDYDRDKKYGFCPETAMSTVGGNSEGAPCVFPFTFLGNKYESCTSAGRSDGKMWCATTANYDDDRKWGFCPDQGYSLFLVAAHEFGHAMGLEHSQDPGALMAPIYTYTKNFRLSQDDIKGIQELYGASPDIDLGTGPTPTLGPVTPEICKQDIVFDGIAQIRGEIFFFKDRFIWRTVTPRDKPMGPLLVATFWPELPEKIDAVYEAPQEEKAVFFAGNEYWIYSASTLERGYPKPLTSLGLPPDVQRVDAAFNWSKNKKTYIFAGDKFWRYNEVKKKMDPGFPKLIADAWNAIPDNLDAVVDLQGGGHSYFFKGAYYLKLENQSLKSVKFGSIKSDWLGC
From the text: as §1

MT-SP1 = target: T3, MT-SP1 (Homo sapiens, UniProt Q9Y5Y6); test: as above; assay type: biochemical; conditions: 20 μM peptide probe, 20 nM protease, 37° C.
T3 sequence (Q9Y5Y6 615-855 limits assumed): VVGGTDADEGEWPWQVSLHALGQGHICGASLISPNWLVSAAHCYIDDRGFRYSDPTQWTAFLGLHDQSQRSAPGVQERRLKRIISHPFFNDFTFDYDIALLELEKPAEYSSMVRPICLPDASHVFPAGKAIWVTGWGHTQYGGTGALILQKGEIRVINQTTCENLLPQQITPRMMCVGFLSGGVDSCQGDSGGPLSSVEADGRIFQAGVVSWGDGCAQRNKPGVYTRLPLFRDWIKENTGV
From the text: as §1

MMP9 = MMP9 (Homo sapiens, UniProt P14780); test: as above; assay type: biochemical; conditions: 20 μM peptide probe, 20 nM protease, 37° C.
From the text: as §1

MMP14 [2] = target: T1, MMP14; test: In vitro cleavability of activatable antibodies, capillary electrophoresis; assay type: biochemical
[3] = tested on: H292 (human lung cancer-derived cell line) subcutaneous xenograft tumors; test: In vivo efficacy in mouse H292 xenograft model; set-up: species or system nu/nu mice; conditions: 9 mg/kg intraperitoneally on day 1, H292 xenograft
Method: In this study, H292 (human lung cancer-derived cell line) subcutaneous xenograft tumors in female nu/nu mice of 6-8 weeks of age were grown to an average volume of 95-247 mm^3. […] The mice were then randomized into groups of 8 mice each and each group was dosed intraperitoneally on day 1 with 9 mg/kg of the indicated test article.

[4] = tested on: human bone marrow aspirates; test: In situ stability in human bone marrow aspirates; assay type: in vitro ADME; conditions: 20 μg/mL, 37° C., 21 or 24 hours; normalized to CM 2001 cleavage
Method: Fresh human bone marrow aspirates from healthy donors were purchased from Stemcell Technology Inc. (Catalog No. 70502) and AllCells Inc. and were processed to lyse red blood cells and washed 5 times with buffer or serum-free media. […] An equal volume of AF647-labeled c225 activatable antibodies prepared at 40 μg/mL in serum-free RPMI media were then added to form a mixture and incubated at a final concentration of 20 μg/mL at 37° C. for 21 or 24 hours. Cells were pelleted through centrifugation for 5 min at 300× g. Supernatants were collected from each incubated mixture and transferred into a well of a 96-well PCR plate for assay by capillary electrophoresis. Each supernatant sample was mixed with Pico Sample Buffer (Perkin Elmer) containing 2-beta-mercaptoethanol at four parts sample and one part of Pico Sample Buffer and then heated at 95° C. for 10 minutes. Substrate cleavage was measured by capillary electrophoresis using a LabChip GXII Touch system (Perkin Elmer) with the HT Pico Protein Express 100 protocol (Perkin Elmer). Protein Express Assay LabChips (Perkin Elmer #760499) were set up using the protocol of the Protein Pico Assay Reagent Kit (Perkin Elmer #760498).

MMP9, sequence (P14780 107-707 limits assumed): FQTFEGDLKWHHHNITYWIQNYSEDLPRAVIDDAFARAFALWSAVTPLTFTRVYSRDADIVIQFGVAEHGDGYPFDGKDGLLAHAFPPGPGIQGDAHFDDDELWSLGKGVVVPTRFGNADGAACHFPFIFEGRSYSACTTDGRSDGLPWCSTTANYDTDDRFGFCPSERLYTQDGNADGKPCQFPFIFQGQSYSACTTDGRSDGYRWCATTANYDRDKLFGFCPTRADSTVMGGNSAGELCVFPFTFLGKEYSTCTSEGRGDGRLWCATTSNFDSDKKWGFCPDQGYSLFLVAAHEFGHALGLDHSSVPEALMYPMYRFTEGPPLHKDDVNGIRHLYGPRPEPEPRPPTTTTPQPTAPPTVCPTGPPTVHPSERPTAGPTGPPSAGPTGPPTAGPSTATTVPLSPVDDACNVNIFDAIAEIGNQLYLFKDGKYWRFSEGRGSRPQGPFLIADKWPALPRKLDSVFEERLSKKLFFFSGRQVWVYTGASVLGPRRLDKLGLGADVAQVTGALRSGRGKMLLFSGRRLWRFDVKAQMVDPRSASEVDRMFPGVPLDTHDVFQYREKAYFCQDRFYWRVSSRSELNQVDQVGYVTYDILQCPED

Substance: APMGLKH [CM 7046, also tested as internally quenched peptide probe]
- Probe Cleavage (pM/s) MMP14 (MMP14 [1]): 114000 pM/s
- Probe Cleavage (pM/s) MMP2 (MMP2): 81700 pM/s
- Probe Cleavage (pM/s) MT-SP1 (MT-SP1): 3330 pM/s
- Probe Cleavage (pM/s) MMP9 (MMP9): 115000 pM/s
- Cleavability (%) 4h MMP14 (MMP14 [2]; 500 nM activatable antibody, 10 nM protease, 4 hours at 37° C.): 95.3%
- percent activation for MMP14 (MMP14 [2]; Tables 6A-6C, activatable antibody format): greater than 90%
- in vivo efficacy (mean tumor volume, FIG. 2A) [3]: comparable with the activatable antibody with the control CM 2001
- in situ cleavage in human bone marrow aspirates (FIG. 3) [4]: demonstrated a resistance to cleavage in situ in the bone marrow
